pIC50: −log10 of the molar value.
Legend:
[1] = tested on: CCRF-CEM (acute T cell lymphoblastic leukemia); assay: Clonogenic assay with 1.15.1-AE (methylcellulose); assay type: cell-based
Method: (§1) Lymphoma or leukemia cell lines were mixed with methylcellulose base media (R&D Systems, USA) and in various concentrations of unconjugated and Auristatin E-conjugated 1.15.1 antibody before plating onto 6-well tissue culture plates (Becton Dickinson, Franklin Lakes, N.J., USA). […] Plates were incubated at 37° C. and examined daily. On days 14-18, colonies on the plates were counted.

DEL (ALCL) = assay: Clonogenic assay with 1.15.1-AE (methylcellulose); assay type: cell-based
Method: as §1

[2] = tested on: MOLT-4 (acute T cell lymphoblastic leukemia); assay: Clonogenic assay with 1.15.1-AE (methylcellulose); assay type: cell-based
Method: as §1

[3] = tested on: PL-21 (acute myeloid leukemia); assay: Clonogenic assay with 1.15.1-AE (methylcellulose); assay type: cell-based
Method: as §1

[4] = tested on: SR (anaplastic large T cell lymphoma, ALCL); assay: Clonogenic assay with 1.15.1-AE (methylcellulose); assay type: cell-based
Method: as §1

SUP-M2 (ALCL) = assay: Clonogenic assay with 1.15.1-AE (methylcellulose); assay type: cell-based
Method: as §1

[5] = tested on: U937 (histiocytic lymphoma, monocytic); assay: Clonogenic assay with 1.15.1-AE (methylcellulose); assay type: cell-based
Method: as §1

[6] = Pharmacokinetics of CR011-vcMMAE after intravenous administration (sandwich ELISA of serum); assay type: in vivo, athymic mice; conditions: for A (pre-exponential constant for alpha phase) / AUC (total area under the curve from 0 to infinity) / Alpha (exponential rate constant for alpha phase) / Alpha-Half Life / B (pre-exponential constant for beta phase) / Beta (exponential rate constant for beta phase) / Beta- Half Life / Cl (total or systemic clearance) / Cmax / Volume (volume of central compartment) / Vss (steady-state volume of distribution): athymic mice, serum
Text: Abbreviations: A: Pre-exponential constant for alpha phase; Alpha: Exponential rate constant for alpha phase; AUC Total area under the curve from 0 to infinity; B: Pre-exponential constant for beta phase; Beta: Exponential rate constant for beta phase; Cl: Total or systemic clearance; Cmax: Maximum observed concentration; MRT: Mean residence time; Volume: Volume of central compartment; Vss: Steady-state volume of distribution.

HEK293 cells = assay: Clonogenic assay, empty vector or GPNMB transfected cells; assay type: cell-based, human; conditions: 96 hours treatment
Method: HEK293 cells are transfected with empty vector (vector) or GPNMB-containing plasmid (GPNMB) as described in Materials and Methods. A. Cell lysates are prepared from the transfected HEK293 cells and the expression of GPNMB (upper panel) or actin (lower panel) is determined by immunoblotting. Lane 1: Empty vector transfectants. Lane 2: GPNMB transfectants. B. Flow cytometry analysis of GPNMB expression on empty vector or GPNMB transfected cells. C. […] After a clonogenic assay, the surviving fraction is normalized to the untreated control and expressed as a percentage of the control using GraphPad Prism graphing software. Each treatment is performed in triplicate. A representative graph from two independent experiments is shown.
Cells were plated in 96-well plates and allowed to recover overnight. […] The cells were then transferred into 6-well plates and allowed to form colonies. Colonies were stained with Giemsa stain (Sigma) and counted. The surviving cell fractions were calculated based upon the ratio of the treated sample and the untreated control. The results were expressed as a percentage of control using GraphPad Prism Version 4 software.

With “CR011-vcMMAE: anti-GPNMB antibody 1.15.1 coupled to monomethylauristatin E via protease-sensitive valine-citrulline linker” the “Clonogenic Assay with 1.15.1-AE IC50” value [1] was “No growth”, the “Clonogenic Assay with 1.15.1-AE IC50” value (DEL (ALCL)) was “No effect” and the “Clonogenic Assay with 1.15.1-AE IC50” value [2] was “No effect”. For the same substance, the “Clonogenic Assay with 1.15.1-AE IC50” value [3] was “No effect”, the “Clonogenic Assay with 1.15.1-AE IC50” value [4] was 0.296 µg/mL and the pIC50 [4] was 8.70. The “Clonogenic Assay with 1.15.1-AE IC50” value (SUP-M2 (ALCL)) was “No growth”, the “Clonogenic Assay with 1.15.1-AE IC50” value [5] was 0.34 µg/mL and the pIC50 [5] was 8.62. For the same substance, the “A (pre-exponential constant for alpha phase)” value ([6]; 1 mg/kg intravenous) was 8.97 µg/mL, the “AUC (total area under the curve from 0 to infinity)” value ([6]; 1 mg/kg intravenous) was 3712 µg·h/mL and the “Alpha (exponential rate constant for alpha phase)” value ([6]; 1 mg/kg intravenous) was 0.179 h⁻¹. For the same substance, the “Alpha-Half Life” value ([6]; 1 mg/kg intravenous) was 0.162 days, the “B (pre-exponential constant for beta phase)” value ([6]; 1 mg/kg intravenous) was 9.82 µg/mL and the “Beta (exponential rate constant for beta phase)” value ([6]; 1 mg/kg intravenous) was 0.00269 h⁻¹. The “Beta- Half Life” value ([6]; 1 mg/kg intravenous) was 10.8 days, the “Cl (total or systemic clearance)” value ([6]; 1 mg/kg intravenous) was 6.46 mL/day/kg and the Cmax ([6]; 1 mg/kg intravenous) was 18.8 µg/mL. For the same substance, the “Volume (volume of central compartment)” value ([6]; 1 mg/kg intravenous) was 0.0532 L/kg, the “Vss (steady-state volume of distribution)” value ([6]; 1 mg/kg intravenous) was 0.099 L/kg and the “A (pre-exponential constant for alpha phase)” value ([6]; 10 mg/kg intravenous) was 74.6 µg/mL. The “AUC (total area under the curve from 0 to infinity)” value ([6]; 10 mg/kg intravenous) was 41210 µg·h/mL, the “Alpha (exponential rate constant for alpha phase)” value ([6]; 10 mg/kg intravenous) was 0.0812 h⁻¹ and the “Alpha-Half Life” value ([6]; 10 mg/kg intravenous) was 0.3555 days. For the same substance, the “B (pre-exponential constant for beta phase)” value ([6]; 10 mg/kg intravenous) was 113 µg/mL, the “Beta (exponential rate constant for beta phase)” value ([6]; 10 mg/kg intravenous) was 0.00281 h⁻¹ and the “Beta- Half Life” value ([6]; 10 mg/kg intravenous) was 10.3 days. For the same substance, the “Cl (total or systemic clearance)” value ([6]; 10 mg/kg intravenous) was 5.83 mL/day/kg, the Cmax ([6]; 10 mg/kg intravenous) was 188 µg/mL and the “Volume (volume of central compartment)” value ([6]; 10 mg/kg intravenous) was 0.0532 L/kg. For the same substance, the “Vss (steady-state volume of distribution)” value ([6]; 10 mg/kg intravenous) was 0.0845 L/kg, the T1/2β ([6]; 1 or 10 mg/kg intravenously) was 10.3 days and the “contribution of the initial phase (α) to the total AUC” value ([6]; 1 or 10 mg/kg intravenously) was less than 2%. For the same substance, the “volume of distribution at steady state (Vss)” value ([6]; intravenous) was “very low” and the “sensitivity to growth-inhibition, GPNMB-expressing vs control HEK293 cells” value (HEK293 cells) was “more sensitive”.

From patent US8846873B2, “Antibodies directed to GPNMB and uses thereof” (Celldex Therapeutics, Inc., priority 2004, dated 2014)
